Experimental findings from paper PMC10539794, “Structural polymorphism and substrate promiscuity of a ribosome-associated molecular chaperone” (Magnetic resonance, 2021) are described below.

The target of assay [1] is FITC-labeled IcdH2 peptide (ICDH 125-137). Briefly: fluorescence polarisation; FITC-labeled peptide at 1 µM, TF serially diluted (0.1-1000 µM); 20 mM Tris pH 7.4, 100 mM NaCl; one-site binding model; apparent constants. Background: Polarisation of emitted light reports the rotation of a fluorescent probe.
Assay [2] addresses FITC-labeled IcdH1 peptide (ICDH 55-70). The description is as above.
The target in assay [3] is FITC-labeled IcdH3 peptide (ICDH 177-194). The assay is described as above.
Assay [4] addresses T1, E. coli TF (trigger factor), full-length (Escherichia coli, UniProt P0A850).
T1 construct: His6 (N); made in house
T1 sequence (P0A850 1-432): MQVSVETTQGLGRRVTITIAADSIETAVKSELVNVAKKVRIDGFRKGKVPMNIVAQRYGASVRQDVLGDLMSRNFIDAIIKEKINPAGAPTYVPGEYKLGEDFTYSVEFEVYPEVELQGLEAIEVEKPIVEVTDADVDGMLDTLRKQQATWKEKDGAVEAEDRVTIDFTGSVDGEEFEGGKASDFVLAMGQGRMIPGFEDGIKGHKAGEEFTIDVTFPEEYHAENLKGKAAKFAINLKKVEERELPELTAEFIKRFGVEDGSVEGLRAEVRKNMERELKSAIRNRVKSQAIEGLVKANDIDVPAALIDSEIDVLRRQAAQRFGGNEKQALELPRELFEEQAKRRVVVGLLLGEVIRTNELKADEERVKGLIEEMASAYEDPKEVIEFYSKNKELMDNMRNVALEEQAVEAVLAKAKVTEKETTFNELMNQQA
Put plainly: Fluorescence polarization analysis of TF binding to FITC-labeled peptides. To be noted: N-terminally FITC-labeled peptide 1 µM, full-length TF 0.1-1000 µM, 20 mM Tris pH 7.4, 100 mM NaCl, ex 485 nm / em 535 nm, one-site binding model, errors from three technical replicates.
Method: A fraction of all these peptides were subsequently labeled with FITC at the N-terminus for fluorescence polarization (FP) measurements. […] For FP analysis, FITC-labeled peptides were dissolved in DMSO to yield a stock solution of 4 M. They were subsequently diluted by 20 mM Tris (pH 7.4) and 100 mM NaCl to yield a molar concentration of 100 µM . 200 µL of TF variants was transferred into a 96-well plate followed by serial dilution by the same buffer in a 1:1 dilution ratio. The final protein concentrations were between 0.1 and 1000 µM . After serial dilution, 50 µL of protein solutions of various protein concentrations was transferred to new wells by an eight-channel pipette and was mixed with FITC-labeled peptide solution to yield a peptide concentration of 1 µM . FP measurements of these samples were carried out using a plate reader (Paradigm, Molecular Device, USA) with an excitation wavelength of 485 nm and an emission wavelength of 535 nm. The integration time was set to 250 ms.

Where no end group is shown, it is not given here.

Turning to “E. coli trigger factor (TF), full length (from UniProt P0A850 1-432) (natural protein)”, the Kd came out at 8.6 µM in assay [1], 28.2 µM in assay [2] and 132 µM in assay [3]. On to KAYKGERKISWMEIYT [IcdH1], for which, in assay [4], the Kd was 28.2 ± 1 µM. Regarding KFLREEMGVKKIRFPEHC [IcdH3], the Kd in assay [4] turned out to be 132 ± 9 µM. On the same count and under the same terms, the value for YICLRPVRYYQGT [IcdH2] was 8.6 ± 0.3 µM.
